From patent US12497460B2, “Anti-MSR1 antibodies and methods of use thereof” (REGENERON PHARMACEUTICALS, INC., priority 2018, dated 2025)

How the values were obtained:
[1] = biological target: T1, biot-AGE-BSA binding to His9-hMSR1 (Homo sapiens, UniProt P21757); assay: Competition sandwich ELISA, blocking of biot-AGE-BSA binding; details: 400 pM biot-AGE-BSA
T1 construct: human MSR1 extracellular domain expressed with a N-terminal nonahistidine tag; His9 (nonahistidine) (N); purchased R&D Systems 2708-MS
T1 sequence (P21757 77-451 limits assumed): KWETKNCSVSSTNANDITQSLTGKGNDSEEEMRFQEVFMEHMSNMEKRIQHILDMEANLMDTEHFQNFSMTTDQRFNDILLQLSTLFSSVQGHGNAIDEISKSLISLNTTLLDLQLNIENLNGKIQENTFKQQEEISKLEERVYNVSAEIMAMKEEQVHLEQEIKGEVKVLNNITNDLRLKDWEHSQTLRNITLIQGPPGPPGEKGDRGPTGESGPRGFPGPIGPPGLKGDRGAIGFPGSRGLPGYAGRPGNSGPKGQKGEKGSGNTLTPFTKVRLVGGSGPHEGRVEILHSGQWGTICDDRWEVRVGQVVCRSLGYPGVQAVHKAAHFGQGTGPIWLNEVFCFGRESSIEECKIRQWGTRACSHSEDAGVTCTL
Protocol: The ability of anti-MSR1 antibodies disclosed herein to block the binding of various ligands to human MSR1 was measured using three competition sandwich ELISA assays. The ligands used in the assays were: (1) acetylated LDL (Ac-LDL), (2) oxidized LDL (Ox-LDL), and (3) advanced glycation end-products of bovine serum albumin (AGE-BSA).
For the assay, recombinant monomeric human MSR1 protein comprised of a portion of the human MSR1 extracellular domain expressed with a N-terminal 9-Histidine tag (His9-hMSR1; R&D Systems, Cat #2708-MS) was coated at a concentration of 2 μg/mL in PBS on a 96-well microtiter plate overnight at 4° C. for use in competition ELISA assays with Ac-LDL, Ox-LDL, or biotinylated-AGE-BSA (“biot-AGE-BSA”). […] Anti-MSR1 antibodies or isotype control antibodies were serially diluted as appropriate for each tested ligand and added in duplicate for each serial dilution set to microtiter plates coated with His9-hMSR1. Buffer alone was also added to wells on each coat. After 1 hour incubation at room temperature, without wash, a final constant concentration of 50 pM Ac-LDL (Life Technologies/ThermoFisher Scientific, Cat #L-35354), 5 nM or 10 nM Ox-LDL (Alfa Aesar, Cat #J65591), or 400 pM biot-AGE-BSA (R&D Systems, Cat #BT4127) were added to plates with His9-hMSR1, and the plates were incubated for an additional 1 hour at room temperature. (Concentrations of Ac-LDL, Ox-LDL and biot-AGE-BSA for antibody inhibition assays were selected from the approximate midway point within the linear portion of individual binding curves of Ac-LDL, Ox-LDL or biot-AGE-BSA to plate-coated His9-hMSR1.) Wells were washed, and plate-bound Ac-LDL or Ox-LDL were detected with anti-LDL rabbit antibody (Alfa Aesar, Cat #J64398) in combination with anti-rabbit IgG (H+L) specific donkey polyclonal antibodies conjugated with horseradish peroxidase (HRP) (JacksonImmunoResearch, Cat #711-035-152) and biot-AGE-BSA was detected with a streptavidin-HRP (ThermoFisher Scientific, Cat #N200). Plates were developed using TMB substrate solution (BD Biosciences, Cat #51-2606KC & Cat #51-2607KC) according to manufacturer's recommendation and absorbance at 450 nm was measured on a Victor™ Multilabel Plate Reader (PerkinElmer™). This assay was conducted in four different assay runs.
Data analysis was performed using a sigmoidal dose-response model within Prism™ software (GraphPad). Percent blockade at maximum concentration of the antibody tested in each assay was calculated as an indicator of the ability of the antibodies to block the binding of Ac-LDL, Ox-LDL or biot-AGE-BSA to His9-hMSR1 on the plate relative to the baseline of the assay. In the calculation, binding signal of the same concentrations of Ac-LDL, Ox-LDL, or biot-AGE-BSA used for the assays in the absence of antibody was referenced as 100% binding or 0% blocking, while the baseline of the assay, defined as binding signal of the sample of buffer without MSR1 ligands or antibody, was referenced as 0% binding or 100% blocking. The maximum percent blockade at the highest concentration of antibody tested in each assay are reported for all antibodies. Negative percent blockade numbers reflected higher MSR1 ligands binding to plate coated His9-hMSR1 in the presence of antibodies.

[2] = test system: Msr1^hu/hu ApoE^−/− mice; assay: In vivo LPS-induced cytokine production in serum; design: species or system mouse; details: 24 hours before in vivo LPS
Protocol: To examine the anti-inflammatory effect of the anti-MSR1 antibody-steroid conjugates, an ex-vivo and in vivo LPS-induced inflammatory immune response model was performed.
Generation of a mouse inflammatory immune response model. Mice homozygously expressing human MSR1 extracellular domain in place of the mouse MSR1 extracellular domain and with a homozygous deletion of the ApoE gene were utilized (resulting mice referred to as Msr1^hu/hu ApoE^−/− mice).
Assay protocol for in vivo LPS-induced responses. In in vivo LPS challenge experiments, mice were intraperitoneally administered with 10 μL/g of decreasing concentrations of anti-MSR1 antibody-steroid conjugates (H1H21234N-N297Q-LP13) and isotype control steroid conjugate (Isotype control-N297Q-LP13) at 24 hours prior to in vivo LPS challenge. PBS and free steroid P4 were intraperitoneally injected at 2 hours prior to in vivo LPS challenge. At 0 hour time point, three large drops of blood (volume ˜ 100 μL) were collected from the maxillary vein of each mouse into serum gel separator tubes. The tubes were centrifuged at 2200-2500 rpm for 15 minutes, and the serum was collected into 96-well plates for subsequent measurement of cytokines. At 18 hours post in vivo LPS challenge, the peritoneal cells were obtained from periotenal cavity as aforementioned for subsequent flow cytometry analysis.

[3] = test system: Msr1^hu/hu ApoE^−/− mice; assay: In vivo LPS-induced cytokine production in serum; design: species or system mouse; details: i.p. dosing 24 hours before LPS challenge; 2 hours post LPS challenge

B1: H1H21227N-N297Q: "modified versions of 21227N (H1H21227N-N297Q and H1H21227N-N297D)"; anti-MSR1 antibody "with a N297Q single point mutation" (antibody, V domains shown)
VH: QVQLVQSGAEVKKPGASVKVSCKVSGYTLTELSIHWVRQVPGKGLEWMGGFDPEEGETIFAQEFRDRVTLTEDTSPDTAYMELSSLKSEDAAVYYCTTPRYCNNGICYDYWGQGTLVTVSS
VL: DIQMTQSPSSLSASVGDRVTITCRASQSISNYLNWYQQKPGKAPKLLIYTASSLQSGVPSRFSGSGSGTDFTLTISSLQTEDFATYYCQQSYSNFPITFGQGTRLEIKR
In the case of B1, the “Anti-MSR1 antibody (300 nM) blocking of biot-AGE-BSA binding to His9-hMSR1 % Blocking” value (shortened to “Anti-MSR1 antibody … to His9-hMSR1 % Blocking”) [1] is reported as 96%.

B2: H1H21227N: "anti-MSR1 antibodies ... (21227N, 21231N, 21234N) were produced with the original human Fcγ portion"; "H1H" = human IgG1 Fc (antibody, V domains shown)
VH: QVQLVQSGAEVKKPGASVKVSCKVSGYTLTELSIHWVRQVPGKGLEWMGGFDPEEGETIFAQEFRDRVTLTEDTSPDTAYMELSSLKSEDAAVYYCTTPRYCNNGICYDYWGQGTLVTVSS
VL: DIQMTQSPSSLSASVGDRVTITCRASQSISNYLNWYQQKPGKAPKLLIYTASSLQSGVPSRFSGSGSGTDFTLTISSLQTEDFATYYCQQSYSNFPITFGQGTRLEIKR
modifications: human IgG1 Fc
notes: "anti-MSR1 antibodies ; (21227N, 21231N, 21234N) were produced with the original human Fcγ portion"; "H1H" = human IgG1 Fc
In the case of B2, the “Anti-MSR1 antibody … to His9-hMSR1 % Blocking” value [1] is reported as 99%.

B3: H1H21231N: "anti-MSR1 antibodies ... (21227N, 21231N, 21234N) were produced with the original human Fcγ portion"; "H1H" = human IgG1 Fc (antibody, V domains shown)
VH: EVQLVESGGGLVQPGGSLRLSCAASGFTFSDHYMDWVRQAPGKGLEWVGRTRNKANSHTTEYTASVTGRFTISRDDSRNSLYLQMNSLKTEDTAVYYCVRAGIIGTLFDYWGQGTLVTVSS
VL: DIQMTQFPSSLSASVGDRVTITCRASQSISSFLNWFQQKPGKAPKFLIYAASSLQSGVPSRFSGSGSGTDFTLTISSLQPEDFATYYCQQSYSSPPITFGQGTRLEIKR
modifications: human IgG1 Fc
notes: as for B2
B3 was tested, and the “Anti-MSR1 antibody … to His9-hMSR1 % Blocking” value [1] was −44%.

B4: H1H21227N-N297D: "The 21227N antibody was also produced as a third version with a N297D mutation" (antibody, V domains shown)
VH: QVQLVQSGAEVKKPGASVKVSCKVSGYTLTELSIHWVRQVPGKGLEWMGGFDPEEGETIFAQEFRDRVTLTEDTSPDTAYMELSSLKSEDAAVYYCTTPRYCNNGICYDYWGQGTLVTVSS
VL: DIQMTQSPSSLSASVGDRVTITCRASQSISNYLNWYQQKPGKAPKLLIYTASSLQSGVPSRFSGSGSGTDFTLTISSLQTEDFATYYCQQSYSNFPITFGQGTRLEIKR
With B4 the “Anti-MSR1 antibody … to His9-hMSR1 % Blocking” value [1] was 97%.

B5: H1H21231N-N297Q: modified version of "21231N (H1H21231N-N297Q) anti-MSR1 antibodies" with "a N297Q single point mutation" (antibody, V domains shown)
VH: EVQLVESGGGLVQPGGSLRLSCAASGFTFSDHYMDWVRQAPGKGLEWVGRTRNKANSHTTEYTASVTGRFTISRDDSRNSLYLQMNSLKTEDTAVYYCVRAGIIGTLFDYWGQGTLVTVSS
VL: DIQMTQFPSSLSASVGDRVTITCRASQSISSFLNWFQQKPGKAPKFLIYAASSLQSGVPSRFSGSGSGTDFTLTISSLQPEDFATYYCQQSYSSPPITFGQGTRLEIKR
B5 was tested, and the “Anti-MSR1 antibody … to His9-hMSR1 % Blocking” value [1] was −50%.

B6: H1H21234N-N297Q-LP13 (conjugate)
VH: QVQLQESGPGLVKPSETLSLTCTVTGGSISRNYWSWIRQPPGKGLEWIGYIYYSGSIDYNPSLKSRVTISVDTSKNQFSLKLSSMTAADTAVYYCARDRWNWKYGMDVWGQGTTVIVSS
VL: EIVLTQSPGTLSLSPGERATLSCRASQTVRNNYLAWYHQKPGQAPRLLIYGASSRATGIPDRFSGSGSGTDFTLTISRLEPEDFTVYYCHQYGNSPWTFGQGTKMEIKR
In the case of B6, the “Cytokine IL-6 in serum” value ([2]; 10.67 mg/kg) is reported as 33 ± 8.1 ng/mL, the “Cytokine KC-GRO in serum” value ([2]; 10.67 mg/kg) is reported as 13.3 ± 1.2 ng/mL and the “Cytokine TNF-α in serum” value ([2]; 10.67 mg/kg) is reported as 0.51 ± 0.08 ng/mL. For the same molecule, the “Cytokine IL-6 in serum” value ([2]; 32.03 mg/kg) was 15.34 ± 5.2 ng/mL, the “Cytokine KC-GRO in serum” value ([2]; 32.03 mg/kg) was 10.6 ± 2.8 ng/mL and the “Cytokine TNF-α in serum” value ([2]; 32.03 mg/kg) was 0.48 ± 0.18 ng/mL. The “Cytokine IL-6 in serum” value ([2]; 96.08 mg/kg) was 7.7 ± 3.1 ng/mL, the “Cytokine KC-GRO in serum” value ([2]; 96.08 mg/kg) was 5.1 ± 1.5 ng/mL and the “Cytokine TNF-α in serum” value ([2]; 96.08 mg/kg) was 0.42 ± 0.14 ng/mL. For the same molecule, the “effect on in vivo LPS-induced cytokine production in serum” value [3] was “efficacious in inhibiting in vivo LPS-induced cytokine production in a dose-dependent manner”.
